Test results taken from patent publication US20260125457A1 (Janssen / Centocor, published 2026).

Assays:
[1] = biological target: T1, wild-type CALR (CALRW14.001) (UniProt P27797 18-417, limits assumed); test: SPR
T1 sequence (looked up): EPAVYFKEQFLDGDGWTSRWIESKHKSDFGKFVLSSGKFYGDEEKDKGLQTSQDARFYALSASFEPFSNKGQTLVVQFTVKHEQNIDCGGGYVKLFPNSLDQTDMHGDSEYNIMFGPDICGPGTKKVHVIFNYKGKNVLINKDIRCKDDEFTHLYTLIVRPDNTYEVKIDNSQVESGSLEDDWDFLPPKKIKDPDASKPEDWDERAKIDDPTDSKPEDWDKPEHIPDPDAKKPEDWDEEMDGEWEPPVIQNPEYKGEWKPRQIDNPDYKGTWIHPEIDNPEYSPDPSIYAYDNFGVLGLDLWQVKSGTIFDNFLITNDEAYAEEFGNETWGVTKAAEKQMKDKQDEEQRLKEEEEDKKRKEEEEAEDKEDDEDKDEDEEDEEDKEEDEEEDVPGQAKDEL

[2] = biological target: T2, Flag/6xhis-CALRdel52 (CALRW12.007) (human, UniProt P27797 18-417); test: SPR
T2 construct: also called human CALRdel52
T2 sequence (looked up): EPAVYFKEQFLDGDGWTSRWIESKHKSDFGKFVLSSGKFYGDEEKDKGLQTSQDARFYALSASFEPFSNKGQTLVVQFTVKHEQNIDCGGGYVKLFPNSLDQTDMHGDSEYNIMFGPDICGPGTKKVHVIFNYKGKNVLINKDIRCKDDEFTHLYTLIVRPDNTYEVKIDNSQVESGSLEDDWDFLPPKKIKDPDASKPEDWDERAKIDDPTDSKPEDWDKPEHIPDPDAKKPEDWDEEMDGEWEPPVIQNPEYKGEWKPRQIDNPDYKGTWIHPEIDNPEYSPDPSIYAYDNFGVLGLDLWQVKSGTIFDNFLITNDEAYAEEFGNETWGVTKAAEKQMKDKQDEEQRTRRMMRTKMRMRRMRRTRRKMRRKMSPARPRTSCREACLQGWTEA

[3] = biological target: T3, Avi/his-CalR-Ins5 (CALRW28.004) (human, UniProt P27797 18-417, limits assumed); test: SPR
T3 construct: also called human CALRins5
T3 sequence (looked up): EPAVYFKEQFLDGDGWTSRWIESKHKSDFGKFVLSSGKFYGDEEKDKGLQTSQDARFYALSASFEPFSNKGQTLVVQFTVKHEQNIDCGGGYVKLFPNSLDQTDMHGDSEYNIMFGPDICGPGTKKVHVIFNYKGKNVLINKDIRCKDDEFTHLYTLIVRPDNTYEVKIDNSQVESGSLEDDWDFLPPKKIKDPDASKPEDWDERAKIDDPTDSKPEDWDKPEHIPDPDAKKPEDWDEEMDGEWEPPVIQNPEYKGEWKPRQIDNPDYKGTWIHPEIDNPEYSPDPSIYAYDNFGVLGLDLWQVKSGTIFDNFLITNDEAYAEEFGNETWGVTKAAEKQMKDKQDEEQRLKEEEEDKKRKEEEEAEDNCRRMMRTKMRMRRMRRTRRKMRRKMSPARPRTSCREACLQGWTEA

[4] = biological target: T4, CD3EG-HSA-6xHis (CD3W220.002) (human, UniProt P07766 22-118; P09693 23-103); test: SPR
T4 construct: also called human CD3; not shown: human serum albumin (HSA); 6xHis tag
T4 sequence (P07766 other isoform, or with tags, fused parts or gaps): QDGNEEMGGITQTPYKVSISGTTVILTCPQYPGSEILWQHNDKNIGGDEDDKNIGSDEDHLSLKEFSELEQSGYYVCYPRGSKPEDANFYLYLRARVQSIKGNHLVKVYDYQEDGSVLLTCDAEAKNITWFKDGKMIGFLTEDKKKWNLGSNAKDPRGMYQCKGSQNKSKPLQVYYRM

[5] = biological target: T5, CALRdel52 (mutant calreticulin, 52 base pair deletion, Type 1) expressed with MPL on engineered cancer cells (UniProt P27797 18-417); test: cell-based or functional assay
T5 sequence (looked up): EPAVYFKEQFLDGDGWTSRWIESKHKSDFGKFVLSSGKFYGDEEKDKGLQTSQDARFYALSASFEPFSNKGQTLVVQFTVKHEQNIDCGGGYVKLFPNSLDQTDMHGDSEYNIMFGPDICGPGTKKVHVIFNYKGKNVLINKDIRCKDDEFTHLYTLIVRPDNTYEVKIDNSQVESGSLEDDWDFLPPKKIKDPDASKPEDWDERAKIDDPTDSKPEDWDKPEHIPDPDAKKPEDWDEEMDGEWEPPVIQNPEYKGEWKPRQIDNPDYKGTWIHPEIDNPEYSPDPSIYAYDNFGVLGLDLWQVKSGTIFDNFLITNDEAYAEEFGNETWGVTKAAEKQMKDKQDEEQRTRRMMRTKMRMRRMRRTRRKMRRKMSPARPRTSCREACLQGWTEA

[6] = biological target: T6, CALRins5 (mutant calreticulin, 5 base pair insertion, Type 2) expressed with MPL on engineered cancer cells (UniProt P27797 18-417); test: cell-based or functional assay
T6 sequence (looked up): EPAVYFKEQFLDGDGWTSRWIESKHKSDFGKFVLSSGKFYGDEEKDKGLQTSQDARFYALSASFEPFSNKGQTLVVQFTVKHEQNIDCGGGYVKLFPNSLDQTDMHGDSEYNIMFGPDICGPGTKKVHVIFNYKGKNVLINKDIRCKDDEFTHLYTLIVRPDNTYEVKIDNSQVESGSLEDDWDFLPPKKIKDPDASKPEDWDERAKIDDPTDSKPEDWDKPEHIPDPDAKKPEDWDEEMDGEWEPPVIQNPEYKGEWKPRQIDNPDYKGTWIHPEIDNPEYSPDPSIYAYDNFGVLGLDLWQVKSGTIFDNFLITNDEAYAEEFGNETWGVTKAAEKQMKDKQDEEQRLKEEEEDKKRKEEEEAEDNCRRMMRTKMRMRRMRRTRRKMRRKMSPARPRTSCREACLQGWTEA

[7] = biological target: T5, CALRdel52 (mutant calreticulin, 52 base …); test: cell-based or functional assay; remark: listed apart in the source
[8] = biological target: T6, CALRins5 (mutant calreticulin, 5 base …); test: cell-based or functional assay; remark: listed apart in the source
[9] = biological target: T2, Flag/6xhis-CALRdel52 (CALRW12.007); test: SPR, forced degradation: Release
[10] = biological target: T3, Avi/his-CalR-Ins5 (CALRW28.004); test: SPR, forced degradation: Release
[11] = biological target: T4, CD3EG-HSA-6xHis (CD3W220.002); test: SPR, forced degradation: Release
[12] = biological target: T6, CALRins5 (mutant calreticulin, 5 base …); test: flow cytometry on ELF-153 MPL CALRins5 cells, 1 h at 37 C, AF647 secondary antibody, Geometric mean
Protocol: FIGS. 27A-27F depict binding of different CALRmutxCD3 antibodies to CALRmut-negative or CALRmut-positive cells. Flow cytometry was used to evaluate CALRmutxCD3 binding to CALRmut-negative and CALRmut-positive cancer cells in vitro. CALRmutxCD3 antibodies were tested on a panel of cell lines, engineered to express MPL and CALRmut, after 1 hour 37° C. incubation, with subsequent incubation with secondary AF647-labeled antibody. Geometric mean fluorescence intensity of AF647 was measured to determine antibody binding.

binding result [1]: no binding (tested: 300 nM)
Kd [2]: 0.0602 nM
Kd [3]: 0.0331 nM
Kd [4]: 0.214 nM
% Active [9]: 100%
Kd [9]: 0.0602 nM
% Active [10]: 100%
Kd [10]: 0.0331 nM
% Active [11]: 100%
Kd [11]: 0.214 nM
EC50 (read off the curve) [12]: ~5 nM
B1: C3CRB73 CALRmut x CD3 bispecific antibody (bispecific antibody, human IgG1, kappa, L234A L235A)
heavy: EVQLLESGGGLVQPGGSLRLSCAVSGIDLSNNAISWVRQAPGKGLEYVGVIGNTGDTYYADSAKGRFTISRDSSKTTLYLQMNSLRAEDTAVYFCVRGPPSYSSSVKNIWGQGTLVTVSSASTKGPSVFPLAPSSKSTSGGTAALGCLVKDYFPEPVTVSWNSGALTSGVHTFPAVLQSSGLYSLSSVVTVPSSSLGTQTYICNVNHKPSNTKVDKKVEPKSCDKTHTCPPCPAPEAAGGPSVFLFPPKPKDTLMISRTPEVTCVVVSVSHEDPEVKFNWYVDGVEVHNAKTKPREEQYNSTYRVVSVLTVLHQDWLNGKEYKCKVSNKALPAPIEKTISKAKGQPREPQVYTLPPSREEMTKNQVSLSCAVKGFYPSDIAVEWESNGQPENNYKTTPPVLDSDGSFFLVSKLTVDKSRWQQGNVFSCSVMHEALHNRFTQKSLSLSPGK
light: DIQMTQSPSSVSASVGDRVTITCQSSQSVYNNNWLSWLQQKPGKAPKRLIYDASKLESGVPSRFSGSGSGTDFTLTISSVQPEDAATYYCAGGFTGNVYTFGGGTKVEIKRTVAAPSVFIFPPSDEQLKSGTASVVCLLNNFYPREAKVQWKVDNALQSGNSQESVTEQDSKDSTYSLSSTLTLSKADYEKHKVYACEVTHQGLSSPVTKSFNRGEC
scFv: DIQMTQSPSSLSASVGDRVTITCRARQSIGTAIHWYQQKPGCAPKLLIKYASESISGVPSRFSGSGSGTDFTLTISSLQPEDFATYYCQQSGSWPYTFGQGTKLEIKGGGSGGSGGCPPCGGSGGEVQLVESGGGLVKPGGSLRLSCAASGFTFSRYNMNWVRQAPGKGLEWVSSISTSSNYIYYADSVKGRFTFSRDNAKNSLDLQMSGLRAEDTAIYYCTRGWGPFDYWGCGTLVTVSSEPKSSDKTHTCPPCPAPEAAGGPSVFLFPPKPKDTLMISRTPEVTCVVVSVSHEDPEVKFNWYVDGVEVHNAKTKPREEQYNSTYRVVSVLTVLHQDWLNGKEYKCKVSNKALPAPIEKTISKAKGQPREPQVYTLPPSREEMTKNQVSLWCLVKGFYPSDIAVEWESNGQPENNYKTTPPVLDSDGSFFLYSKLTVDKSRWQQGNVFSCSVMHEALHNHYTQKSLSLSPGK
notes: IgG1-AAS; also called JNJ-88549968; CALRB421 Fab x CD3 spFv
T cell-mediated cytotoxicity EC50 (nM), ELF-153 MPL CALRdel52 [5]: 0.034 nM
T cell-mediated cytotoxicity EC50 (nM), OCI-M2 MPL CALRdel52 [5]: 0.61 nM
T cell-mediated cytotoxicity EC50 (nM), ELF-153 MPL CALRins5 [6]: 0.094 nM
T cell-mediated cytotoxicity EC50 (nM), OCI-M2 MPL CALRins5 [6]: 1.69 nM
cytotoxicity EC50 (nM), whole blood of CALRmut MPN patients, ELF-153 MPL CALRdel52 [7]: 0.66 nM
cytotoxicity EC50 (nM), whole blood of healthy donors, ELF-153 MPL CALRdel52 [7]: 0.51 nM
cytotoxicity EC50 (nM), whole blood of CALRmut MPN patients, ELF-153 MPL CALRins5 [8]: 0.64 nM
cytotoxicity EC50 (nM), whole blood of healthy donors, ELF-153 MPL CALRins5 [8]: 0.32 nM
